# According to publication PMC8691596:
# Experiments:
# [1] = molecular target: cynomolgus monkey FcRn, heterodimer with β2 microglobulin, extracellular domain with C-terminal hexa-His (cynomolgus monkey | not stated) (UniProt Q8SPV9); test: SPR
# [2] = molecular target: human FcRn, heterodimer with β2 microglobulin, extracellular domain with C-terminal hexa-His (UniProt P55899); test: SPR
# [3] = molecular target: mouse FcRn, heterodimer with β2 microglobulin, extracellular domain with C-terminal hexa-His (mouse | not stated) (UniProt Q61559); test: SPR
# [4] = molecular target: human FcγRIIa H131 extracellular domain, C-terminal hexa-His (independently-made panel) (human) (UniProt P12318)
# Sequence of human FcγRIIa H131 extracellular domain, C-terminal hexa-His (independently-made panel) (human) (P12318 34-217): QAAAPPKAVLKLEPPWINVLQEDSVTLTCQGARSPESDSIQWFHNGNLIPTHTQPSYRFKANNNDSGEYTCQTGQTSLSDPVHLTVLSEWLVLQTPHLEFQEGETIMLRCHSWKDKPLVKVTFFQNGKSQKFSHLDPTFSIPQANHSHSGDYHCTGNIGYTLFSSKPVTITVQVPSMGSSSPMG
# Sequence of cynomolgus monkey FcRn, heterodimer with β2 microglobulin, extracellular domain with C-terminal hexa-His (cynomolgus monkey | not stated) (Q8SPV9 24-297, chain 1 of 2): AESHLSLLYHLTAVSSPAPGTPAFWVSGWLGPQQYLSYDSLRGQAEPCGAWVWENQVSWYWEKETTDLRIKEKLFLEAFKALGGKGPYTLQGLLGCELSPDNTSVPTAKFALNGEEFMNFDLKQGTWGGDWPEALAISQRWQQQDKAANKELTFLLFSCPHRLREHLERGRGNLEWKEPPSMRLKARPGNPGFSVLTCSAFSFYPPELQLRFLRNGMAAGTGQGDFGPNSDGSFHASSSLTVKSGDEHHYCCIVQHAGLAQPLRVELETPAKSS
# Sequence of cynomolgus monkey FcRn, heterodimer with β2 microglobulin, extracellular domain with C-terminal hexa-His (cynomolgus monkey | not stated) (Q6T672 21-119, chain 2 of 2, further chain): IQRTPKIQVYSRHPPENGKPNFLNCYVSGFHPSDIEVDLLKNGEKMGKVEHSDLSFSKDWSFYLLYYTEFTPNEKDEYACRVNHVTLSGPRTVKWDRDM
Kd [1] [nM],Kd [2] [nM],Kd [3] [nM],"Mean normalised luminescence (% of wild-type reference); Promega Fc effector bioassay, Jurkat NFAT-luciferase cells with the receptor + Raji cells, antibody 10 μg/mL [4] [%]",Substance
347,562,71,,"Remicade (rituximab, wild-type human IgG1) (from UniProt P01857)"
,,,100,anti-CD20 (rituximab variable regions) human IgG1 wild type reference (antibody)
